Experiment [1] concerns the target T1, recombinant human BCMA-his fusion protein (ACRO Biosystem, Cat. No. BCA-H522y) (human, UniProt Q02223 1-54).
T1 construct: extracellular domain; Bought protein; also called huBCMA-his; hu BCMA-his; not shown: His tag
T1 sequence (looked up): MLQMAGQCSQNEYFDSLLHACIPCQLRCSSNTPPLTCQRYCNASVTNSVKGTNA
The experiment in a line: ELISA, coated antigen. The method, then: (§1) Procedures: huBCMA-his and cynoBCMA-his antigens were prepared into 0.5 μg/mL coating solutions with PBS (pH 7.4). The coating solutions were added to a microplate at 100 μL/well and incubated at 4° C. overnight. The residual coating solution was discarded before 3% BSA was added at 300 μL/well, and the plate was blocked for 3 h at room temperature. The microplate was washed once with PB ST at 300 The stock humanized monoclonal antibody solutions were serially 3-fold diluted to the 11th concentration. The dilutions were added to the microplate at 100 μL/well. After a 1-h incubation at room temperature, the microplate was washed thrice with PBST at 300 The HRP-conjugated 6*His, His-Tag antibody was 25,000-fold diluted with 1% BSA-PBST and added at 100 After another 1-h incubation at room temperature, the microplate was washed thrice with PB ST at 300 μL/well and dried. The TMB chromogenic solution was added at 100 μL. After a 5-min reaction at room temperature, 2 M H2504 was added at 100 μL/well to terminate the reaction. The microplate was placed on a microplate reader (Molecular Devices, SPECTRA Max plus 384) and the absorbance OD450 value was read at 450 nm wavelength.
On the technique in general: An ELISA detects its analyte on a solid surface through an enzyme-linked reagent.

In experiment [2] the target is T2, recombinant cynomolgus monkey cynoBCMA-his (ACRO Biosystem, Cat. No. BCA-052H7) (cynomolgus monkey, UniProt A0A2K5UD97 1-53).
T2 construct: extracellular domain; Bought protein; also called cynomolgus/rhesus macaque BCMA/TNFRSF17 protein; not shown: His tag
T2 sequence (A0A2K5UD97 entry or part of it): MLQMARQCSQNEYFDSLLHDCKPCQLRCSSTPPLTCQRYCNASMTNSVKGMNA
The experiment in a line: ELISA, coated antigen. As for the experimental part: as §1

The target of experiment [3] is T3, human BCMA on cells (NCI-H929, U266B1, HEK293 huBCMA) (human, UniProt Q02223 1-184).
T3 construct: whole, on cells; also called cell surface BCMA antigen
T3 sequence (looked up): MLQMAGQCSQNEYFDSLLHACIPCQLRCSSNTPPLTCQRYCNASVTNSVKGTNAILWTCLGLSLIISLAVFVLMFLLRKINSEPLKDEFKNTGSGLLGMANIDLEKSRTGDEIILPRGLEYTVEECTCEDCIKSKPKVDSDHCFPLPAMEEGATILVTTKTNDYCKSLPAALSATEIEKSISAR
Briefly: flow cytometry on NCI-H929 cells. The method, then:
(§2) Procedures: Preparation of cell suspensions: The cells were resuspended in PBS, and the cell density was adjusted to 2×10⁵ cells/well. Mouse antibodies were added to a 96-well plate at […] and serially 3-fold diluted from 3000 nM. The plate was incubated for 1 h at 4° C. 150 μL of precooled PBS containing 1% of FBS was added into the 96-well plate after the co-incubation with the primary antibody was finished. The mixtures were centrifuged at 300×g for 5 min and the supernatants were discarded. The above procedures were repeated once. The fluorescent secondary antibody PE […] (Biolegend, 409304) was added at 80 μL/well. The plate was incubated at 4° C. for 30 min. 150 μL of precooled PBS containing 1% of FBS was added into the 96-well plate after the co-incubation with the secondary antibody was finished. The mixtures were uniformly mixed with a pipette. The 96-well plate was centrifuged at 300×g for 5 min in a plate centrifuge and the supernatants were removed. The above procedures were repeated once. The cells were resuspended in 100 μL of PBS containing 1% of FBS and detected on a flow cytometry (BD Accuri™ C6).
(Flow cytometry measures light scatter and fluorescence of single cells or particles in a stream.)

Experiment [4] deals with T4, cynomolgus monkey BCMA on HEK293 cynoBCMA cells (cynomolgus monkey, UniProt A0A2K5UD97 1-183).
T4 construct: whole, on cells
T4 sequence (A0A2K5UD97 entry or part of it): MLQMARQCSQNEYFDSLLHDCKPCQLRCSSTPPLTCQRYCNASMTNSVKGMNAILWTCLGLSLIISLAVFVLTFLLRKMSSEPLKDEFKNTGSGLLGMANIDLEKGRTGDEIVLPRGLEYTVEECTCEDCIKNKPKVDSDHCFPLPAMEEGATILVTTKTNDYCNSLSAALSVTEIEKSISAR
The experiment in a line: flow cytometry on HEK293 cynoBCMA cells. The method, then: as §2

Experiment [5] deals with T1, recombinant human BCMA-his fusion …. Briefly: SPR (Biacore T200), anti-His capture on CM5, 1:1 fit. The method, then:
(§3) In this example, the antigen-antibody binding kinetics and affinity were determined by the BIACORE method.
(§4) Procedures: The anti-histidine antibody (GE, His capture Kit, Cat. No. 28995056) was conjugated to the Sereis S Sensor Chip CMS to capture the test articles, thus acquiring the binding kinetic and affinity data of the antigen, as an analyte, to the test articles. The initial concentration for detecting the binding of the antigen and the test articles was 10 nM. […] The Start up flushing process (1×HBS-EP+buffer) was performed at least thrice before loading to equilibrate the system. The association and dissociation tendencies between the antigen and the test articles were detected. When the dissociation was completed, a regeneration reagent was loaded for regeneration before the detection of the next concentration was performed. After the detection was finished, the data were fitted by using a 1:1 Binding fitting mode in data analysis software (Biacore T200 Evaluation Software).
On the technique in general: SPR reads the build-up and loss of mass on a sensor chip optically.

Experiment [6] concerns the target T2, recombinant cynomolgus monkey …. The experiment is described as above. The method, then:
as §3, §4

The target of experiment [7] is T1, recombinant human BCMA-his fusion …. The experiment in a line: competitive ELISA, coated huBCMA-his, competitor APRIL-biotin.
Experiment [8] shares this target. The experiment in a line: competitive ELISA, coated huBCMA-his, competitor 83A10-biotin.
Experiment [9] has as its target T2, recombinant cynomolgus monkey …. Briefly: competitive ELISA, coated cynoBCMA-his, competitor 83A10-biotin.
The target in experiment [10] is T5, recombinant human BCMA-mFc fusion protein (human; mouse).
T5 construct: also called huBCMA-mFc
T5 chain: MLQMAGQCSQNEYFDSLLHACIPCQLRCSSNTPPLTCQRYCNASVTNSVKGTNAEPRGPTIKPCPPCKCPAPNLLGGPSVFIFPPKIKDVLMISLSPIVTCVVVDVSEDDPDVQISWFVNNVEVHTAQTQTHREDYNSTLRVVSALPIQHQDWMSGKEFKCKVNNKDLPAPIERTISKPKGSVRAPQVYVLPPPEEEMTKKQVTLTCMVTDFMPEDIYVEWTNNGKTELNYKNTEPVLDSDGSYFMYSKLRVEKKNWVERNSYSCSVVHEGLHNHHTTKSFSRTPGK
The experiment in a line: indirect ELISA, coated antigen. The method, then:
Procedures: Human, mouse and monkey BCMA antigens were prepared into 0.5 μg/mL coating solutions with PBS buffer. The coating solutions were added to a microplate at 100 μL/well and incubated at 4° C. overnight. The residual coating solution was discarded before 3% BSA was added at 300 μL/well, and the plate was blocked for 3 h at room temperature. The microplate was washed once with PB ST (PBS containing 0.1% of TWEEN 20) at 300 μL/well. The human-mouse chimeric monoclonal antibodies were serially 3-fold diluted from 10 μg/mL to the 9th concentration. The dilutions were added to the microplate at 100 μL/well. After a 1-h incubation at room temperature, the microplate was washed thrice with PB ST at 300 μL/well. The mouse anti-human IgG Fc antibody [HRP] mAb was 25,000-fold diluted with 1% BSA-PBST and added at 100 μL/well. After another 1-h incubation at room temperature, the microplate was washed thrice with PBST at 300 μL/well and dried. The TMB chromogenic solution was added at 100 μL/well. After a 5-min reaction at room temperature, 2 M H₂SO₄ was added at 100 μL/well to terminate the reaction. The microplate was placed on a microplate reader (Molecular Devices, SPECTRA Max plus 384) and the absorbance OD450 value was read at 450 nm wavelength.

In experiment [11] the target is T3, human BCMA on cells (NCI-H929, U266B1, …). Briefly: flow cytometry on U266B1 cells. The method, then:
(§5) Procedures: The cells were resuspended in PBS, and the cell density was adjusted to 2×10^5 cells/well. Human-mouse chimeric monoclonal antibodies were added to a 96-well plate at 50 μL/well and serially 3-fold diluted from 3000 nM to the 9th concentration. The plate was incubated for 1 h at 4° C. 150 μL of precooled PBS containing 1% of FBS was added into the 96-well plate after the co-incubation with the primary antibody was finished. The mixtures were centrifuged at 300×g for 5 min and the supernatants were discarded. The above procedures were repeated once. The fluorescent secondary antibody PE anti-human IgG Fc (Biolegend, 409304) was added at 80 μL/well. The plate was incubated at 4° C. for 30 min. 150 μL of precooled PBS containing 1% of FBS was added into the 96-well plate after the co-incubation with the secondary antibody was finished. The 96-well plate was centrifuged at 300×g for 5 min and the supernatants were discarded. The above procedures were repeated once. The cells were resuspended in 100 μL of PBS containing 1% of FBS and detected on a flow cytometry (BD Accuri™ C6).

The target is the same in experiment [12]. The experiment in a line: flow cytometry on NCI-H929 cells. The method, then:
as §5
The source holds these as a separate data set.

Experiment [13] shares this target. Briefly: flow cytometry on NCI-H929 cells; NCI-H929 cells. As for the experimental part: as §5
Experiment [14] has as its target T1, recombinant human BCMA-his fusion …. The experiment in a line: competitive ELISA, coated huBCMA-his, competitor APRIL-biotin. As for the experimental part: (§6) The 96-well microplate was treated with 100 μL of 0.5 μg/mL huBCMA-his in PBS and incubated overnight at 4° C. The plate was then washed thrice with PBS washing buffer containing 0.1% of Tween-20 and blocked with 300 μL of PBS containing 1% of BSA for 2 h. 100 μL of each BCMA antibody was added to the plate. […] The plate was incubated at 37° C. for 1 h, and unbound secondary antibody was washed with PBS washing buffer containing 0.1% of Tween-20. The TMB chromogenic solution was added at 100 μL/well. After a 5-min reaction at room temperature, 2 M H₂SO₄ was added at 100 μL/well to terminate the reaction. The microplate was placed on a microplate reader (Molecular Devices, SPECTRA Max plus 384) and the absorbance OD450 value was read at 450 nm wavelength.
This is another data set of the same source.

The target is the same in experiment [15]. Briefly: competitive ELISA, coated huBCMA-his, competitor 83A10-biotin. As for the experimental part: as §6
The source holds these as a separate data set.

For experiment [16] the target is unchanged. The experiment in a line: competitive ELISA, coated huBCMA-his, competitor 83A10-biotin, antibody at 7 µg/mL.

B1: humanized antibody hu-mAb3 (VH3+VL3) (antibody, V domains shown)
VH: QVQLVQSGAEVKKPGASVKVSCKASGYTITDYNMDWVRQAPGQGLEWIGNINPHNGGSIYNQKFQGRATLTVDKSTSTAYMELSSLRSEDTAVYYCARGDATLVLDYWGQGTTVTVSS
VL: DIQLTQSPSSLSASVGDRATITCRASKSVSTSGLSYMHWYQQKPGKAPKVLIYLASNLESGVPARFSGSGSGTDFTLTISSVQPEDFATYYCQHSRELPPTFGQGTKLELK
notes: human IgG1/kappa named only as preferred
For the molecule B1, the EC50 (in general, the concentration that produces a half-maximal response) in experiment [1] came to 0.0226 nM; in experiment [2] it was 0.0303 nM; in [3] it was 8.07 nM; in [4], 3.76 nM. Also, the values for the Kd in [5] and in [6] were 0.399 nM and 0.256 nM, respectively. The figures for the koff in experiment [5] and in [6] were 0.00235 s⁻¹ and 0.000773 s⁻¹, respectively. Moreover, the association rate constant (kon) (in general, the second-order rate constant of association) in [5] came to 5.9e+06 M⁻¹ s⁻¹; in experiment [6], 3.02e+06 M⁻¹ s⁻¹. Moreover, the IC50 (in general, the midpoint of a concentration-inhibition curve) in experiment [7] is 0.918 µg/mL; in experiment [8], 1.37 µg/mL; in [9], 1.32 µg/mL.

B2: human-mouse chimeric antibody c-mAb1 (antibody, human IgG1, V domains shown)
VH: EVQLQQSGPELVKPGTSVEMSCKASGYTFTDYNIHWVRQRHGESLEWLGYINPNNGVTNFNQKFKGKATLTVNKSSSTAYMELRSLTSDDSAVYYCSSGLFDGYPFPYWGQGTLVTVSA
VL: DIVLTQSPASLVVSLGQRATISCRASKSVSTSGYNYIHWYQQKPGQPPKLLIFLASNLKSGVPARFSGGGSGTDFTLNIHPVEEDDAATYFCQHNRELPYTFGGGTKVEIK
notes: not shown: human IgG1 heavy chain constant region, GenBank No. AK303185.1; human kappa light chain constant region, GenBank No. MG815648.1
B2: the EC50 in [1] was found to be 0.00158 nM; in experiment [10], 0.647 nM; in [11], 1.9 nM; in [12], 7.5 nM; in experiment [13] it was 7.5 nM. Also, the Kd (as a rule, the concentration at which binding is half-saturated) in experiment [5] amounted to 0.247 nM. Further, the koff (commonly a measure of how fast the partners let go of each other) in experiment [5] was 0.00202 s⁻¹. Further, in experiment [5], the kon was 8.18e+06 M⁻¹ s⁻¹. Besides, the figures for the IC50 in experiment [14] and in experiment [15] were 0.0114 µg/mL and 3.16 µg/mL, respectively. The competition in experiment [16] is 70%.
